# Test results taken from US20160089418A1.
# Columns and labels:
# [1] = target: recombinant human IFN-alpha (human); experiment: cell-based or functional assay
# human IFN-beta (human) = human IFN-beta (human) (UniProt P01574); experiment: cell-based or functional assay
# Sequence of UniProt P01574 (P01574 22-187 limits assumed): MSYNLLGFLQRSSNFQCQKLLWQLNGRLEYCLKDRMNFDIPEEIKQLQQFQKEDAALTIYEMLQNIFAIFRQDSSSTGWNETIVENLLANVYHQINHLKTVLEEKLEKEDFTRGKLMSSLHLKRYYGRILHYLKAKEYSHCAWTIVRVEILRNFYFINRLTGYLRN
substance,measurement,setting,value
Vaccinia virus B19 IFN-binding protein (full length protein) (from UniProt P25213 20-351),percent neutralization of IFN at a 1:400 dilution of the medium,[1],> 80%
same,percent neutralization of IFN at a 1:400 dilution of the medium,human IFN-beta (human),> 50%
